In IntAct's records for PubMed 27150041:

Target: smu2_caeel smu-2 (UniProt Q9N4U5)
Sequence (Q9N4U5 whole entry): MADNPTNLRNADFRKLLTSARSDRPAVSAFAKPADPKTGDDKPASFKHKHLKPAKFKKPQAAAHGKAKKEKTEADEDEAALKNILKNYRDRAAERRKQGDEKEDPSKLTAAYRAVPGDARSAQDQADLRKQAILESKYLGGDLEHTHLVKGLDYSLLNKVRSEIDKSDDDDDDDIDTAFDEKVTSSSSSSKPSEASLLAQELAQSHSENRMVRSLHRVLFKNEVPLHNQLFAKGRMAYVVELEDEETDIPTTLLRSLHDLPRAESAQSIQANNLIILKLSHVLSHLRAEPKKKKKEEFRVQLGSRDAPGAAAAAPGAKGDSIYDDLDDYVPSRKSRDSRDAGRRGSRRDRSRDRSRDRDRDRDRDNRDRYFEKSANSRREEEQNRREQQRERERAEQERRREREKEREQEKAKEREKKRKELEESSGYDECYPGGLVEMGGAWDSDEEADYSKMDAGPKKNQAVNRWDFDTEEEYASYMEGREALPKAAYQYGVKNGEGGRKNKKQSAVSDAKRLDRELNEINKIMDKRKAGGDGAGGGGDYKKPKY

Sequence of Smu-1 suppressor of mec-8 and unc-52 protein (Caenorhabditis elegans), G5EEG7 L96R (G5EEG7 whole entry L96R): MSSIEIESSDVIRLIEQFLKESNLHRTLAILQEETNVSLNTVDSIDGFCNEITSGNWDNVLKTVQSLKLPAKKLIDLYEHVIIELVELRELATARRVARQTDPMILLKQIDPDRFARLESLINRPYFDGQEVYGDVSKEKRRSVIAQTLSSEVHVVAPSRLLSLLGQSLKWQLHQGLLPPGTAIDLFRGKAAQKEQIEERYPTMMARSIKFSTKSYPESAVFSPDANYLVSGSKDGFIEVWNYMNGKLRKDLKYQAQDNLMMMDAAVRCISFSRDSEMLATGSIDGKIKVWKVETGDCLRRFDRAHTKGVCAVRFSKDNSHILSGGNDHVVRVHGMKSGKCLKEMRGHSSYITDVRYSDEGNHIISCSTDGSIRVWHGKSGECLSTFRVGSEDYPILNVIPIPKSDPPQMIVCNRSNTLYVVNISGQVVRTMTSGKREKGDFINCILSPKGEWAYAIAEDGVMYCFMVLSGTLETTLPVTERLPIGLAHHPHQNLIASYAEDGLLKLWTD

effect of a mutation on the interaction: disrupting interaction strength
Substance: Smu-1 suppressor of mec-8 and unc-52 protein (Caenorhabditis elegans), G5EEG7 L96R
